{"source": "patent KR20200072008A", "about": "(dated 2020)", "binders": {"B1": {"name": "C16 IgG-HRP 접합체 (antibody, V domains shown)", "VH": "EVQLQQSGAELARPGASVQMSCKAFGYTFTNYTMHWVRQRPGQGLEWIGFINPSSDYTNYNQKFKDKATLSADKSSSTAYMQLSSLTSEDSAVYYCARRIFYNGRTYAAMDYWGQGTSVTVSS", "VL": "DIVMTQSPASLAVSLGQRATISCRASKSVSSSGYSYMHWYQQKPGQPPKLLIYLASNLESGVPARFSGSGSGTDFTLNIHPVEEEDAATYYCQHSRELPLTFGAGTKLELK"}}, "biological_target": "SNAP25 197 from lysate of BoNT/A treated N2-42F cells (mouse, UniProt P60879 1-197)", "sequence (P60879 1-197 limits assumed)": "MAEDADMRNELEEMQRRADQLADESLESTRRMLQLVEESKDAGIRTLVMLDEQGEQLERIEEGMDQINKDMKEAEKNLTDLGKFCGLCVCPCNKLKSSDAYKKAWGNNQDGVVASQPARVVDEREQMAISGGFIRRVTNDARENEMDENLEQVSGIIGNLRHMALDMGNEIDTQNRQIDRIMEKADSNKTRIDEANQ", "experiment": "sandwich ELISA; detection of captured SNAP25 197 from N2-42F lysate"}
{"binder": "B1", "values": [{"measurement": "binding result", "result": "binds"}]}
